# Assay results from IntAct's records for PubMed 29039417.
# B1: Protein PTHB1 (Homo sapiens), Q3SYG4 (parent)
# chain: MSLFKARDWWSTILGDKEEFDQGCLCLANVDNSGNGQDKIIVGSFMGYLRIFSPHPAKTGDGAQAEDLLLEVDLRDPVLQVEVGKFVSGTEMLHLAVLHSRKLCVYSVSGTLGNVEHGNQCQMKLMYEHNLQRTACNMTYGSFGGVKGRDLICIQSMDGMLMVFEQESYAFGRFLPGFLLPGPLAYSSRTDSFLTVSSCQQVESYKYQVLAFATDADKRQETEQQKLGSGKRLVVDWTLNIGEQALDICIVSFNQSASSVFVLGERNFFCLKDNGQIRFMKKLDWSPSCFLPYCSVSEGTINTLIGNHNNMLHIYQDVTLKWATQLPHIPVAVRVGCLHDLKGVIVTLSDDGHLQCSYLGTDPSLFQAPNVQSRELNYDELDVEMKELQKIIKDVNKSQGVWPMTEREDDLNVSVVVSPNFDSVSQATDVEVGTDLVPSVTVKVTLQNRVILQKAKLSVYVQPPLELTCDQFTFEFMTPDLTRTVSFSVYLKRSYTPSELEGNAVVSYSRPTDRNPDGIPRVIQCKFRLPLKLICLPGQPSKTASHKITIDTNKSPVSLLSLFPGFASQSDDDQVNVMGFHFLGGARITVLASKTSQRYRIQSEQFEDLWLITNELILRLQEYFEKQGVKDFACSFSGSIPLQEYFELIDHHFELRINGEKLEELLSERAVQFRAIQRRLLARFKDKTPAPLQHLDTLLDGTYKQVIALADAVEENQGNLFQSFTRLKSATHLVILLIALWQKLSADQVAILEAAFLPLQEDTQELGWEETVDAAISHLLKTCLSKSSKEQALNLNSQLNIPKDTSQLKKHITLLCDRLSKGGRLCLSTDAAAPQTMVMPGGCTTIPESDLEERSVEQDSTELFTNHRHLTAETPRPEVSPLQGVSE
# partner: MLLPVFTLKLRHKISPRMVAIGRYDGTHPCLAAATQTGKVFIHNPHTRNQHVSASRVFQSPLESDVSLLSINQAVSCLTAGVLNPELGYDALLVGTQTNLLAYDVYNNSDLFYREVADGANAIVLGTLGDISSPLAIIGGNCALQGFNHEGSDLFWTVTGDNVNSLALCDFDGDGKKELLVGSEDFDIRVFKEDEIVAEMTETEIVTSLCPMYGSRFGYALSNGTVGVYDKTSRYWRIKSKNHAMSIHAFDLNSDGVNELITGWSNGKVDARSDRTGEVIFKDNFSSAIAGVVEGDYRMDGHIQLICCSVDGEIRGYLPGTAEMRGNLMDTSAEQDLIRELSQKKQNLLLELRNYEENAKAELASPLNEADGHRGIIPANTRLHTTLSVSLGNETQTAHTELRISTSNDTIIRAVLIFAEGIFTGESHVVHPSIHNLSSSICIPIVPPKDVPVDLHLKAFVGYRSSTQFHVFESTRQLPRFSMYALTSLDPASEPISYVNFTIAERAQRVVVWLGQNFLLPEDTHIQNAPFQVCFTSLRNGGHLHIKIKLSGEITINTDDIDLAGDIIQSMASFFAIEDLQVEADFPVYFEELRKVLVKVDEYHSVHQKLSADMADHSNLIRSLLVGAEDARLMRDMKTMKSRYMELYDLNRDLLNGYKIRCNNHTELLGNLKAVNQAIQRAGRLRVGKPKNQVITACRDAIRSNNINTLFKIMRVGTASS
# Variants of: B1
# Details: with bbs2_human BBS2, Q9BXC9
row,Variant,effect of a mutation on the interaction
1,N515A,with no effect
2,N515K,with no effect
3,N515E,with no effect
4,Q524E,with no effect
5,Q524A,with no effect
6,Q524K,with no effect
7,R521K,with no effect
8,R521E,with no effect
9,R521T,disrupting interaction strength
10,R521A,with no effect
11,L529E,with no effect
12,L529A,with no effect
13,C525A,with no effect
14,C525K,with no effect
15,C525E,with no effect
16,Y508A,with no effect
17,Y508E,with no effect
18,Y508K,with no effect
19,P516E,with no effect
20,P516K,with no effect
21,P516A,with no effect
22,S507E,with no effect
23,S507K,with no effect
24,S507A,with no effect
25,P511A,with no effect
26,P511K,with no effect
27,P511E,with no effect

row,Variant,effect of a mutation on the interaction
1,G502K,with no effect
2,S509E,with no effect
3,S509K,with no effect
4,S509A,with no effect
5,A504E,with no effect
6,A504K,with no effect
7,R514E,with no effect
8,R514K,with no effect
9,R514A,with no effect
10,I523A,with no effect
11,I523K,with no effect
12,I523E,with no effect
13,R528K,with no effect
14,R528E,with no effect
15,R528A,with no effect
16,V505A,with no effect
17,V505K,with no effect
18,V505E,with no effect
19,K526E,with no effect
20,K526A,with no effect
21,D517E,with no effect
22,D517K,with no effect
23,D517A,with no effect
24,D513K,with no effect
25,D513E,with no effect
26,D513A,with no effect
27,I519E,with no effect

row,Variant,effect of a mutation on the interaction
1,I519A,with no effect
2,I519K,with no effect
3,N503K,with no effect
4,N503E,with no effect
5,N503A,with no effect
6,V506K,with no effect
7,V506E,with no effect
8,V506A,with no effect
9,P520K,with no effect
10,P520E,with no effect
11,P520A,with no effect
12,V522E,with no effect
13,V522K,with no effect
14,V522A,with no effect
15,R510A,with no effect
16,R510E,with no effect
17,R510K,with no effect
18,G518E,with no effect
19,G518K,with no effect
20,G518A,with no effect
21,F527A,with no effect
22,F527E,with no effect
23,F527K,with no effect
24,T512E,with no effect
25,T512K,with no effect
26,T512A,with no effect

# The next lines start with the values.
row,effect of a mutation on the interaction,Variant
1,with no effect,N553A
2,with no effect,N553E
3,disrupting interaction strength,N553T
4,with no effect,N553K
5,with no effect,P540K
6,with no effect,P540A
7,with no effect,P540E
8,with no effect,D551E
9,with no effect,D551A
10,with no effect,D551K
11,with no effect,S545A
12,with no effect,S545K
13,with no effect,S545E
14,with no effect,K532E
15,with no effect,K532A
16,with no effect,S561E
17,with no effect,S561K
18,with no effect,S561A
19,with no effect,G538E
20,with no effect,G538A
21,with no effect,G538K
22,disrupting interaction strength,L559R
23,with no effect,L559E
24,with no effect,L559K
25,with no effect,L559A
26,with no effect,L529K

row,effect of a mutation on the interaction,Variant
1,with no effect,P530K
2,disrupting interaction strength,P530L
3,with no effect,P530A
4,with no effect,P530E
5,disrupting interaction strength,P556Q
6,with no effect,P556K
7,with no effect,P556A
8,with no effect,P556E
9,with no effect,S555A
10,with no effect,S555E
11,with no effect,S555K
12,with no effect,I550A
13,with no effect,I550K
14,with no effect,I550E
15,with no effect,T543E
16,with no effect,T543K
17,with no effect,T543A
18,with no effect,T549E
19,with no effect,T549A
20,with no effect,T549K
21,disrupting interaction strength,S558N
22,with no effect,S558K
23,with no effect,S558A
24,with no effect,S558E
25,with no effect,S541E
26,with no effect,S541A

row,effect of a mutation on the interaction,Variant
1,with no effect,S541K
2,with no effect,F563E
3,with no effect,F563A
4,with no effect,F563K
5,with no effect,L536E
6,with no effect,L536A
7,with no effect,L536K
8,with no effect,I548A
9,with no effect,I548K
10,with no effect,I548E
11,with no effect,H546E
12,with no effect,H546K
13,with no effect,H546A
14,with no effect,L533K
15,with no effect,L533A
16,with no effect,L533E
17,with no effect,V557E
18,with no effect,V557A
19,with no effect,V557K
20,with no effect,K554E
21,with no effect,K554A
22,disrupting interaction strength,K554S
23,with no effect,L560K
24,with no effect,L560A
25,with no effect,L560E
26,with no effect,K547A

row,effect of a mutation on the interaction,Variant
1,with no effect,K547E
2,with no effect,L531E
3,with no effect,L531K
4,with no effect,L531A
5,with no effect,T552E
6,with no effect,T552K
7,with no effect,T552A
8,with no effect,C535E
9,with no effect,C535A
10,with no effect,C535K
11,with no effect,Q539K
12,with no effect,Q539E
13,with no effect,Q539A
14,with no effect,L562K
15,with no effect,L562E
16,with no effect,L562A
17,with no effect,A544K
18,with no effect,A544E
19,with no effect,P537E
20,with no effect,P537A
21,with no effect,P537K
22,with no effect,K542E
23,with no effect,K542A
24,with no effect,I534E
25,with no effect,I534A
26,with no effect,I534K
